Values of other authors, collected in article PMC6611644.
Where “and” joins values, the source holds several entries; their conditions need not be identical. Equal entries are not always repeated.

Biological target: GPIbα (Homo sapiens) (UniProt P07359)
Test: SPR

Sequence of UniProt P07359 (P07359 17-306): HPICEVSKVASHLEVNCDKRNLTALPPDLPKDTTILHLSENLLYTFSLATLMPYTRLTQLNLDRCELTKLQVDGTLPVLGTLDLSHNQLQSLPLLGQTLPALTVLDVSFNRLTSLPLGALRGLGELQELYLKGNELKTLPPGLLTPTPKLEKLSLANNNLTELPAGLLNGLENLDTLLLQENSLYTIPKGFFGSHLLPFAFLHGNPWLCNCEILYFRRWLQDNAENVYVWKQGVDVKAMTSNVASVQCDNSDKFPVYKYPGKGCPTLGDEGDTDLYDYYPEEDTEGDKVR

| Substance | Kd |
| --- | --- |
| GspB BR (from UniProt Q939N5) | 23.8 nM |
| Hsa BR (from UniProt A8AWU7) | 5.05 nM and 30.5 nM |
